Results from patent US20090227507A1, “Angiotensin (1-7) Dosage Forms and Uses Thereof” (UNIVERSITY OF SOUTHERN CALIFORNIA, priority 2008, published 2009).
“Also recorded” adds a separate entry of the source.

How the values were obtained:
[1] = Physical examination in healthy men; assay type: in vivo, human; settings: all dose groups; baseline (Day 1) to Day 20
Description: On Day −1, subjects who met the eligibility criteria underwent a PE, vital sign measurements, and had samples drawn to evaluate clinical laboratory parameters. On Study Days 1 through 7 for each cohort, subjects received a single SC injection of USB003 at the assigned dose level or placebo. Subjects were kept in the clinic under observation for the entire Day −1 to Day 8 period. Subjects were discharged from the clinic on the morning of Day 8 after all scheduled procedures and a 24-hour urine collection had been completed. Subjects were scheduled to return to the clinic on Days 11, 14, 17, and 20 for hematology measurements and selected safety assessments. Subjects were to be released from the study following a post-study PE on Day 20.
On Day 20 of the study, subjects were to have returned to the clinic for the post-study check and PE. Blood samples for hematology and plasma USB003 were also drawn.
Laboratory measurements were conducted by a local clinical laboratory.

[2] = Adverse events, safety and tolerability in healthy men
Description: Safety: Safety and tolerance evaluations included: • Tolerability including local reactions at the injection site. • Vital signs (blood pressure [BP], pulse rate [PR], respiration rate [RR], and temperature). • Routine clinical laboratory tests (hematology, serum biochemistry, and urinalysis). • Recording of adverse events (AE). • Electrocardiograms (ECG) at baseline and Day 8.
Descriptive statistics were used to summarize adverse events (AEs). Descriptive statistics, with change from baseline, were used for clinical laboratory results, vital signs, and flow cytometry data. Shift tables were prepared for clinical laboratory results. Other data are listed.
Safety evaluations are based on AEs, PEs, vital signs, temperature, and laboratory results from baseline to study completion. Laboratory measurements were conducted by a local clinical laboratory. Using standard procedures, blood samples were drawn or urine collected from subjects for the following laboratory tests:
All AEs were coded using the Medical Dictionary for Regulatory Activities Version 5.1 (MedDRA®).

[3] = 200 μg/kg group, of the 7 events
[4] = 300 μg/kg group, of the 13 events

Asp-Arg-Val-Tyr-Ile-His-Pro [USB003]
PE findings [1]: no changes from baseline | incidence of ALT increase ([2]; 200 μg/kg): 22.2% | incidence of body temperature increase ([2]; 200 μg/kg): 0.0% | ALT increased, Events ([2]; 200 μg/kg (N = 9)): 2 | ALT increased, Subjects ([2]; 200 μg/kg (N = 9)): 2 (22.2) N (%) | AST increased, Events ([2]; 200 μg/kg (N = 9)): 1 | AST increased, Subjects ([2]; 200 μg/kg (N = 9)): 1 (11.1) N (%) | Body temperature increased, Events ([2]; 200 μg/kg (N = 9)): 0 | Body temperature increased, Subjects ([2]; 200 μg/kg (N = 9)): 0 (0.0) N (%) | Cyst NOS, Events ([2]; 200 μg/kg (N = 9)): 1 | Cyst NOS, Subjects ([2]; 200 μg/kg (N = 9)): 1 (11.1) N (%) | Gastroesophageal reflux, Events ([2]; 200 μg/kg (N = 9)): 0 | Gastroesophageal reflux, Subjects ([2]; 200 μg/kg (N = 9)): 0 (0.0) N (%) | Gastrointestinal disorders, Events ([2]; 200 μg/kg (N = 9)): 0 | Gastrointestinal disorders, Subjects ([2]; 200 μg/kg (N = 9)): 0 (0.0) N (%) | Headache, Events ([2]; 200 μg/kg (N = 9)): 0 | Headache, Subjects ([2]; 200 μg/kg (N = 9)): 0 (0.0) N (%) | Infections/Infestations, Events ([2]; 200 μg/kg (N = 9)): 0 | Injury, poisoning and procedural complications, Events ([2]; 200 μg/kg (N = 9)): 0 | Injury, poisoning and procedural complications, Subjects ([2]; 200 μg/kg (N = 9)): 0 (0.0) N (%) | Investigations, Events ([2]; 200 μg/kg (N = 9)): 4 | Investigations, Subjects ([2]; 200 μg/kg (N = 9)): 2 (22.2) N (%) | Joint sprain, Events ([2]; 200 μg/kg (N = 9)): 0 | Joint sprain, Subjects ([2]; 200 μg/kg (N = 9)): 0 (0.0) N (%) | Nasal congestion, Events ([2]; 200 μg/kg (N = 9)): 1 | Nasal congestion, Subjects ([2]; 200 μg/kg (N = 9)): 1 (11.1) N (%) | Nausea, Events ([2]; 200 μg/kg (N = 9)): 0 | Nausea, Subjects ([2]; 200 μg/kg (N = 9)): 0 (0.0) N (%) | Neoplasms benign, Events ([2]; 200 μg/kg (N = 9)): 1 | Neoplasms benign, Subjects ([2]; 200 μg/kg (N = 9)): 1 (11.1) N (%) | Nervous system disorders, Events ([2]; 200 μg/kg (N = 9)): 0 | Nervous system disorders, Subjects ([2]; 200 μg/kg (N = 9)): 0 (0.0) N (%) | Neutrophil count increased, Events ([2]; 200 μg/kg (N = 9)): 0 | Neutrophil count increased, Subjects ([2]; 200 μg/kg (N = 9)): 0 (0.0) N (%) | Pharyngitis, Events ([2]; 200 μg/kg (N = 9)): 1 | Pharyngitis, Subjects ([2]; 200 μg/kg (N = 9)): 1 (11.1) N (%) | Respiratory, thoracic and mediastinal disorders, Events ([2]; 200 μg/kg (N = 9)): 2 | Respiratory, thoracic and mediastinal disorders, Subjects ([2]; 200 μg/kg (N = 9)): 1 (11.1) N (%) | Subjects With At Least 1 AE, Events ([2]; 200 μg/kg (N = 9)): 7 | Subjects With At Least 1 AE, Subjects ([2]; 200 μg/kg (N = 9)): 4 (44.4) N (%) | WBC increased, Events ([2]; 200 μg/kg (N = 9)): 1 | WBC increased, Subjects ([2]; 200 μg/kg (N = 9)): 1 (11.1) N (%) | White blood cells in urine, Events ([2]; 200 μg/kg (N = 9)): 0 | White blood cells in urine, Subjects ([2]; 200 μg/kg (N = 9)): 0 (0.0) N (%) | subjects with clinically significant (CS) out-of-range laboratory values ([2]; 200 μg/kg dose group): 3 | total CS laboratory abnormalities ([2]; 200 μg/kg dose group): 6 | incidence of AEs ([2]; 200 μg/kg group): 44.4% | AE events assessed as doubtful relationship to study drug [2, 3]: 3 | AE events assessed as not related to study drug [2, 3]: 2 | AE events assessed as possible relationship to study drug [2, 3]: 2 | adverse event, Subject 028 ([2]; 200 μg/kg, Day 7, resolved without treatment on Study Day 10): cystic nodule on their anterior abdominal wall | incidence of ALT increase ([2]; 300 μg/kg): 0.0% | incidence of body temperature increase ([2]; 300 μg/kg): 50% | ALT increased, Events ([2]; 300 μg/kg (N = 8)): 0 | ALT increased, Subjects ([2]; 300 μg/kg (N = 8)): 0 (0.0) N (%) | AST increased, Events ([2]; 300 μg/kg (N = 8)): 1 | AST increased, Subjects ([2]; 300 μg/kg (N = 8)): 1 (12.5) N (%) | Body temperature increased, Events ([2]; 300 μg/kg (N = 8)): 7 | Body temperature increased, Subjects ([2]; 300 μg/kg (N = 8)): 4 (50.0) N (%) | Cyst NOS, Events ([2]; 300 μg/kg (N = 8)): 0 | Cyst NOS, Subjects ([2]; 300 μg/kg (N = 8)): 0 (0.0) N (%) | Gastroesophageal reflux, Events ([2]; 300 μg/kg (N = 8)): 0 | Gastroesophageal reflux, Subjects ([2]; 300 μg/kg (N = 8)): 0 (0.0) N (%) | Gastrointestinal disorders, Events ([2]; 300 μg/kg (N = 8)): 1 | Gastrointestinal disorders, Subjects ([2]; 300 μg/kg (N = 8)): 1 (12.5) N (%) | Headache, Events ([2]; 300 μg/kg (N = 8)): 0 | Headache, Subjects ([2]; 300 μg/kg (N = 8)): 1 (12.5) N (%) | Infections/Infestations, Events ([2]; 300 μg/kg (N = 8)): 1 | Injury, poisoning and procedural complications, Events ([2]; 300 μg/kg (N = 8)): 1 | Injury, poisoning and procedural complications, Subjects ([2]; 300 μg/kg (N = 8)): 1 (12.5) N (%) | Investigations, Events ([2]; 300 μg/kg (N = 8)): 9 | Investigations, Subjects ([2]; 300 μg/kg (N = 8)): 4 (50.0) N (%) | Joint sprain, Events ([2]; 300 μg/kg (N = 8)): 1 | Joint sprain, Subjects ([2]; 300 μg/kg (N = 8)): 1 (12.5) N (%) | Nasal congestion, Events ([2]; 300 μg/kg (N = 8)): 0 | Nasal congestion, Subjects ([2]; 300 μg/kg (N = 8)): 0 (0.0) N (%) | Nausea, Events ([2]; 300 μg/kg (N = 8)): 1 | Nausea, Subjects ([2]; 300 μg/kg (N = 8)): 1 (12.5) N (%) | Neoplasms benign, Events ([2]; 300 μg/kg (N = 8)): 0 | Neoplasms benign, Subjects ([2]; 300 μg/kg (N = 8)): 0 (0.0) N (%) | Nervous system disorders, Events ([2]; 300 μg/kg (N = 8)): 0 | Nervous system disorders, Subjects ([2]; 300 μg/kg (N = 8)): 1 (12.5) N (%) | Neutrophil count increased, Events ([2]; 300 μg/kg (N = 8)): 1 | Neutrophil count increased, Subjects ([2]; 300 μg/kg (N = 8)): 1 (12.5) N (%) | Pharyngitis, Events ([2]; 300 μg/kg (N = 8)): 0 | Pharyngitis, Subjects ([2]; 300 μg/kg (N = 8)): 0 (0.0) N (%) | Respiratory, thoracic and mediastinal disorders, Events ([2]; 300 μg/kg (N = 8)): 0 | Respiratory, thoracic and mediastinal disorders, Subjects ([2]; 300 μg/kg (N = 8)): 0 (0.0) N (%) | Subjects With At Least 1 AE, Events ([2]; 300 μg/kg (N = 8)): 13 | Subjects With At Least 1 AE, Subjects ([2]; 300 μg/kg (N = 8)): 4 (50.0) N (%) | WBC increased, Events ([2]; 300 μg/kg (N = 8)): 0 | WBC increased, Subjects ([2]; 300 μg/kg (N = 8)): 0 (0.0) N (%) | White blood cells in urine, Events ([2]; 300 μg/kg (N = 8)): 0 | White blood cells in urine, Subjects ([2]; 300 μg/kg (N = 8)): 0 (0.0) N (%) | subjects with clinically significant (CS) out-of-range laboratory values ([2]; 300 μg/kg dose group): 1 | total CS laboratory abnormalities ([2]; 300 μg/kg dose group): 2 | subjects with elevations in oral body temperature assessed as an AE ([2]; 300 μg/kg dose group, temperature >37.7° C.): 4 | incidence of AEs ([2]; 300 μg/kg group): 50.0% | AE events assessed as doubtful relationship to study drug [2, 4]: 2 | AE events assessed as not related to study drug [2, 4]: 3 | AE events assessed as possible relationship to study drug [2, 4]: 8 | onset of headache after the morning dose, Subject 053 ([2]; 300 μg/kg, Day 2): 10 h | time to resolution of headache without treatment, Subject 053 ([2]; 300 μg/kg, Day 2): 5 h | severity of ankle sprain, Subject 046 ([2]; 300 μg/kg, study Day 18): Grade 2 | deaths or serious adverse events ([2]; SC doses of 200 and 300 μg/kg): no deaths or other serious adverse events; also recorded: no deaths or SAEs | discontinuation from the study because of an AE ([2]; SC doses of 200 and 300 μg/kg): no subject discontinued from the study because of an AE; also recorded: no AE led to withdrawal from the study | safety and tolerability ([2]; SC doses of 200 and 300 μg/kg): safe and well tolerated | CTC scores of AEs ([2]; whole study): no AEs with CTC scores of Grade 3 or higher and only 1 Grade 2 toxicity
